According to patent publication US20050181450A1, “Novel inositol 1,4,5-trisphosphate (IP3) receptor-binding protein and an IP3 indicator” (priority 2002, published 2005):

Legend:
[1] = target: T1, GST-IbIIa (IP3-binding region of mouse IP3R1) (Mus musculus, UniProt P11881); assay: GST pulldown with GST-IbIIa; conditions: IRBIT in high salt extract
T1 construct: GST-IbIIa (amino acids 224-604 of mouse IP3R1) and its site-directed mutants K508A and R441Q; made in house
Excerpt: (§1) The cDNAs encoding the full-length and N-terminal region (amino acids 1-104) of IRBIT were subcloned into the Escherichia coli hexahistidine (His) fusion vector pET-23a(+) (Novagen) to generate IRBIT-His and IRBIT(1-104)-His expression vectors, respectively. The same cDNAs were subcloned into the GST fusion vector pGEX-4T-1 (Amersham Pharmacia Biotech) to generate GST-IRBIT and GST-IRBIT(1-104) expression vectors, respectively. The cDNA fragments encoding the amino acids 1-225, 1-343, 341-923, 600-1248, 916-1581 and 1553-1943 of the amino acid sequence (SEQ ID NO: 7) of mouse IP3R1 were inserted into pGEX-KG to generate GST-Ia, GST-Iab, GST-IIab, GST-IIbIIIa, GST-IIIab and GST-IV expression vectors, respectively. The amino acids 1593-2217 of mouse IP3R1 were inserted into pGEX-4T-1 to obtain GST-IV-Va expression vector. These fusion proteins were expressed in Escherichia coli. GST-EL was expressed in Sf9 cells as described above. […]
(§2) For the determination of the IRBIT binding region and the critical amino acid residue of IP3R1, the diluted high salt extract was subjected to pulldown assay as described above with 100 pmol of GST, GST-EL, GST-Ia, GST-Iab, GST-IbIIa, GST-IIab, GST-IIbIIIa, GST-IIIab, GST-IV, GST-IV-Va, K508A or R441Q, and analyzed by Western blotting with anti-IRBIT antibody.

[2] = target: T2, R441Q mutant of GST-IbIIa (Mus musculus, UniProt P11881, R441Q); assay: GST pulldown with R441Q; type: binding; conditions: IRBIT in high salt extract; compared with GST-IbIIa
T2 construct: GST-IbIIa (amino acids 224-604 of mouse IP3R1) and its site-directed mutants K508A and R441Q; made in house
T2 sequence (P11881 224-604 R441Q): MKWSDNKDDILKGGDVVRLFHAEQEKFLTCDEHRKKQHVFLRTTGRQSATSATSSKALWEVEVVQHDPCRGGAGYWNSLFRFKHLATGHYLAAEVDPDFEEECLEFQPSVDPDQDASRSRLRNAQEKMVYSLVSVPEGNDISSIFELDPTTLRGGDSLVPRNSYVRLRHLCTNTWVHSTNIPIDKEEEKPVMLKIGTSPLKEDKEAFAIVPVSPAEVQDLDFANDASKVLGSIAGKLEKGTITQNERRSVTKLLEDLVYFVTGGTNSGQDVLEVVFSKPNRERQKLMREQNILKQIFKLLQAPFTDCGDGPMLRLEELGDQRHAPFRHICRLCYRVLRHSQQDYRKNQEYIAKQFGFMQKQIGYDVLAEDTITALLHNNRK
Excerpt: as §1, §2

[3] = target: T3, K508A mutant of GST-IbIIa (Mus musculus, UniProt P11881, K508A); assay: GST pulldown with K508A; type: binding; conditions: IRBIT in high salt extract
T3 construct: GST-IbIIa (amino acids 224-604 of mouse IP3R1) and its site-directed mutants K508A and R441Q; made in house
T3 sequence (P11881 224-604 K508A): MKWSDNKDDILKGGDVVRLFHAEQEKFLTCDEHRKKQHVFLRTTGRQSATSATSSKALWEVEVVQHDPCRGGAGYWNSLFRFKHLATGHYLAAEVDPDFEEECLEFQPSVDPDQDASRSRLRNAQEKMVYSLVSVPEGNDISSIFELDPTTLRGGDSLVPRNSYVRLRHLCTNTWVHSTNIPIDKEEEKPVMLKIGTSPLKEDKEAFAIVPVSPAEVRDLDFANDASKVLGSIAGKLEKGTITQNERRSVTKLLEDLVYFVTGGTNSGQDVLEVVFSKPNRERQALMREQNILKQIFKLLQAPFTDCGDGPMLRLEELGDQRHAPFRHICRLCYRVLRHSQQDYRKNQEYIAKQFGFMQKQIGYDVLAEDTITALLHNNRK
Excerpt: as §1, §2

[4] = target: T4, GST-Iab (mouse IP3R1 amino acids 1-343) (Mus musculus, UniProt P11881); assay: GST pulldown with GST-Iab; type: binding; conditions: IRBIT in high salt extract
T4 construct: made in house; host or cells: Escherichia coli
T4 sequence (P11881 1-343): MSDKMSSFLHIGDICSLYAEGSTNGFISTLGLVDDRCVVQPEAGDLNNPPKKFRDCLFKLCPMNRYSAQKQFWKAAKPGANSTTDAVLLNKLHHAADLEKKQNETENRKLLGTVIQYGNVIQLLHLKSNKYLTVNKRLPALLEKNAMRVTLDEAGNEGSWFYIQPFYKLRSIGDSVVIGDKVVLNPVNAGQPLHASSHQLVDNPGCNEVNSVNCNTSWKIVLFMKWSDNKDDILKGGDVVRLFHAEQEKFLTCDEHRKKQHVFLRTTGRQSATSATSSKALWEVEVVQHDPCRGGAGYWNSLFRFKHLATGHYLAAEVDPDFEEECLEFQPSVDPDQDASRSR
Excerpt: as §1, §2

[5] = target: T5, GST-IIab (mouse IP3R1 amino acids 341-923) (Mus musculus, UniProt P11881); assay: GST pulldown with GST-IIab; type: binding; conditions: IRBIT in high salt extract
T5 construct: made in house; host or cells: Escherichia coli
T5 sequence (P11881 341-923): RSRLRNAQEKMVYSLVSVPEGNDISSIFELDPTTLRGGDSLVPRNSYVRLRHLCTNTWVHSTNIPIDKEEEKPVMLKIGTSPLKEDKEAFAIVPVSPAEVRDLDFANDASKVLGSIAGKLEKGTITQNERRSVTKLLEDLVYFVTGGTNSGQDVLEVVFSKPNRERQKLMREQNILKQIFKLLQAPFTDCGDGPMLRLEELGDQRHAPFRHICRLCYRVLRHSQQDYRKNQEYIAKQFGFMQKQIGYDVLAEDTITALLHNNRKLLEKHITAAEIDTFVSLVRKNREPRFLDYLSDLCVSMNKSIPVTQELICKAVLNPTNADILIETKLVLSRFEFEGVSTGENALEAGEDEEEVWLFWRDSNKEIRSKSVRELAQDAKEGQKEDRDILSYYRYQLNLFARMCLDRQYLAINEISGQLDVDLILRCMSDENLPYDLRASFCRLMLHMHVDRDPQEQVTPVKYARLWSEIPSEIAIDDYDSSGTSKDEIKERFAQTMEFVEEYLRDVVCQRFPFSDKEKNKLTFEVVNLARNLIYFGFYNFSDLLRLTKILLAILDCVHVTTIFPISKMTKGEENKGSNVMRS
Excerpt: as §1, §2

GST-EL (IP3R) = target: T6, GST-EL (IP3R) (Mus musculus, UniProt P11881, N1264K); assay: [3H]IP3 binding to GST-EL; conditions: IRBIT treated with alkaline phosphatase
T6 construct: construct a GST-IP3R1 (1-2217) vector (termed GST-EL); made in house; host or cells: GST-EL: Sf9 cells; His-IRBIT: Sf9 cells or E. coli
T6 sequence (P11881 1-2217 N1264K): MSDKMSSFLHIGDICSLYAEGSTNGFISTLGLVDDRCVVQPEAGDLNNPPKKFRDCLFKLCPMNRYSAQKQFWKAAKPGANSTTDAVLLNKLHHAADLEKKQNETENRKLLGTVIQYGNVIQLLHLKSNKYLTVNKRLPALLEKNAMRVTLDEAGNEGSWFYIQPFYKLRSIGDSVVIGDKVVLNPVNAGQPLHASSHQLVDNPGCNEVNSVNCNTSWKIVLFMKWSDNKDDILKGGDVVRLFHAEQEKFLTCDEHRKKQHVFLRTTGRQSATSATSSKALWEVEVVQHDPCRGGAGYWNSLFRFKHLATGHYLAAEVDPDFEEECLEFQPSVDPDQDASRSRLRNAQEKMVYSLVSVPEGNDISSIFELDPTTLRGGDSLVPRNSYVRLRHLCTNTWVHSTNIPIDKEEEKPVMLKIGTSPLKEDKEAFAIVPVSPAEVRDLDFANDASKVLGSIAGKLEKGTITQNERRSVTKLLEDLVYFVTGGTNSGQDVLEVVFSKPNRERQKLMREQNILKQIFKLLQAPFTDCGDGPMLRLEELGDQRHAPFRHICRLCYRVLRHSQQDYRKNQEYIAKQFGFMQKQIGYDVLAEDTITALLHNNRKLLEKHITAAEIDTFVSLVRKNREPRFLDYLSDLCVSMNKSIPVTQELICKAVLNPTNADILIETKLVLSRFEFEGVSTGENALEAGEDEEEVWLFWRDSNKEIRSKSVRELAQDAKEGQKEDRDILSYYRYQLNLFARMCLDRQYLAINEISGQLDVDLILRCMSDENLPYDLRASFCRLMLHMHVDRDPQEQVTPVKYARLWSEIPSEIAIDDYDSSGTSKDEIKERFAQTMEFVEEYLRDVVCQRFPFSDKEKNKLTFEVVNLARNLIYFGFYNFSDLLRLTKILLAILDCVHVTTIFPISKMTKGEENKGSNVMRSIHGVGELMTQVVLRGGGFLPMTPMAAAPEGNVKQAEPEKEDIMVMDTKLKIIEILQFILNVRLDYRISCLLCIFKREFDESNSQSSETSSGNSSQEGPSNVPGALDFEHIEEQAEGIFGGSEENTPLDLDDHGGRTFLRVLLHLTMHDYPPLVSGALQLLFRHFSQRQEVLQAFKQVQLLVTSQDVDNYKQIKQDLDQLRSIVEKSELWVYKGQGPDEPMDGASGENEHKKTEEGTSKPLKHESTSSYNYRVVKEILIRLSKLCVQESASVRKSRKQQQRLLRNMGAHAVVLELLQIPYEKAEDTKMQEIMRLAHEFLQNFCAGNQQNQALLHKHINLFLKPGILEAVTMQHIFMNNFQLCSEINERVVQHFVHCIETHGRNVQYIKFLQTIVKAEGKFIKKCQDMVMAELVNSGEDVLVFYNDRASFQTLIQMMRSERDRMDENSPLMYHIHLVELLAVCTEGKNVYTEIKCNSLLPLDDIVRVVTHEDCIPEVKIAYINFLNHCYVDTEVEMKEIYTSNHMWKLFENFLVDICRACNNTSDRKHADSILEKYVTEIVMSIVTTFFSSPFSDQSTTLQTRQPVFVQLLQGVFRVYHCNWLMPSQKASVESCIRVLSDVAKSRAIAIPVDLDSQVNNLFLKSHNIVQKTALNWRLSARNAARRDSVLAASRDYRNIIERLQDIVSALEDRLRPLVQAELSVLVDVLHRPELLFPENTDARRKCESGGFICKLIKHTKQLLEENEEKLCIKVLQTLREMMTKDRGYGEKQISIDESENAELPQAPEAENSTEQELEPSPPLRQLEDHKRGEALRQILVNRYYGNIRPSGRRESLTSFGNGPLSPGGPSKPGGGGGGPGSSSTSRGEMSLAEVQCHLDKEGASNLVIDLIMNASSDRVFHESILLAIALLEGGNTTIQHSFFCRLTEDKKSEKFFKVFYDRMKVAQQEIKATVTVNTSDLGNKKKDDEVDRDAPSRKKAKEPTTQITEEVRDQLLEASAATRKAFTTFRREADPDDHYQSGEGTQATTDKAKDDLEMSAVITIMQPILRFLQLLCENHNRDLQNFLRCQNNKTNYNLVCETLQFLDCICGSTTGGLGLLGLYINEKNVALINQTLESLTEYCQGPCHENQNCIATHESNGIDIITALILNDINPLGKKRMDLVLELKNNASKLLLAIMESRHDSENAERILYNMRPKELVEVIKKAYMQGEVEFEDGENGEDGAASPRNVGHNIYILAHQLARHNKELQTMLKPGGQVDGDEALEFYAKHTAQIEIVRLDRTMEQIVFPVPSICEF
Protocol: (A) 0.2 μg of GST-EL was incubated with 0.1, 1, or 10 μg of purified His-tagged IRBIT expressed in Sf9 cells or E. coli in a solution containing 50 mM Tris-HCl (pH 8.0), 1 mM EDTA, and 1 mM 2-mercaptoethanol, for 30 min on ice. Then 8.7 nM [^3H]IP3 (PerkinElmer Life Sciences) was added to the samples and incubated for 10 min on ice (total volume was 50 μl). The samples were mixed with 2 μl of 50 mg/ml γ-globulin and 50 μl of 30% PEG6000, 50 mM Tris-HCl (pH 8.0), and incubated for 5 min on ice. Non-specific binding was measured in the presence of 10 μM cold IP3. After centrifugation at 20,000×g for 5 min, the precipitate was dissolved in SOLVABLE™ (Packard) and the radioactivity was measured with a liquid scintillation counter (Beckman Coulter). Results are shown as the mean±S.D. from three independent experiments. (B) Purified His-IRBIT expressed in Sf9 cells was incubated with alkaline phosphatase for 30 min at 37° C. prior to the IP3 binding assay described as in (A). (C and D) Scatchard analysis. 0.1 μg of GST-EL was incubated with or without 1 μg of purified His-tagged IRBIT expressed in Sf9 cells as described in (A). Then 2.17 nM [^3H]IP3 and 2-500 nM cold IP3 were added to the samples and incubated for 10 min on ice (total volume was 100 μl). Non-specific binding was measured in the presence of 10 μM cold IP3. [^3H]IP3 binding to GST-EL was measured as described in (A).
The effect of IRBIT on binding of IP3 to IP3R was examined. GST-EL (0.2 μg) was incubated with 0.1, 1, or 10 μg of purified His-tagged IRBIT expressed in Sf9 cells or E. coli in a solution containing 50 mM Tris-HCl (pH 8.0), 1 mM EDTA, and 1 mM 2-mercaptoethanol, for 30 min on ice. Then 8.7 nM [^3H]IP3 (PerkinElmer Life Sciences) was added to the samples and incubated for 10 min on ice (total volume was 50 μl). The samples were mixed with 2 μl of 50 mg/ml γ-globulin and 50 μl of 30% PEG6000, 50 mM Tris-HCl (pH 8.0), and incubated for 5 min on ice. Non-specific binding was measured in the presence of 10 μM cold IP3. After centrifugation at 20,000×g for 5 min, the precipitate was dissolved in SOLVABLE™ (Packard) and the radioactivity was measured with a liquid scintillation counter (Beckman Coulter). […] 0.1 μg of GST-EL was incubated with or without 1 μg of purified His-tagged IRBIT expressed in Sf9 cells as described in (A). Then 2.17 nM [^3H]IP3 and 2-500 nM cold IP3 were added to the samples and incubated for 10 min on ice (total volume was 100 μl). Non-specific binding was measured in the presence of 10 μM cold IP3. [^3H]IP3 binding to GST-EL was measured as described in (A). […] Bmax was not changed.

T1 sequence (P11881 224-604): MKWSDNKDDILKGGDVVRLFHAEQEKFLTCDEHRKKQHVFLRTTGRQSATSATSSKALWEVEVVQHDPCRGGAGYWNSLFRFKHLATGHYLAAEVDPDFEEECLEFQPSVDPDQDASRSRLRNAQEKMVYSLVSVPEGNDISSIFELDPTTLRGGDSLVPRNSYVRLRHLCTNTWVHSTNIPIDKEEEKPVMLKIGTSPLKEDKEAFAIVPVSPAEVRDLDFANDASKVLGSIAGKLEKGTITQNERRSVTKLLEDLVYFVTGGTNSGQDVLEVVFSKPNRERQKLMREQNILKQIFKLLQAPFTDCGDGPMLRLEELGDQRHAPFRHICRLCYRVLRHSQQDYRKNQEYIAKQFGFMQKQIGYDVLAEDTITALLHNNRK

B1: IRBIT: novel IP3 receptor-binding protein of 530 amino acids, SEQ ID NO: 1 (protein, listed as Mus musculus)
chain: MSMPDAMPLPGVGEELKQAKEIEDAEKYSFMATVTKAPKKQIQFADDMQEFTKFPTKTGRRSLSRSISQSSTDSYSSAASYTDSSDDEVSPREKQQTNSKGSSNFCVKNIKQAEFGRREIEIAEQDMSALISLRKRAQGEKPLAGAKIVGCTHITAQTAVLIETLCALGAQCRWSACNIYSTQNEVAAALAEAGVAVFAWKGESEDDFWWCIDRCVNMDGWQANMILDDGGDLTHWVYKKYPNVFKKIRGIVEESVTGVHRLYQLSKAGKLCVPAMNVNDSVTKQKFDNLYCCRESILDGLKRTTDVMFGGKQVVVCGYGEVGKGCCAALKALGAIVYITEIDPICALQACMDGFRVVKLNEVIRQVDVVITCTGNKNVVTREHLDRMKNSCIVCNMGHSNTEIDVTSLRTPELTWERVRSQVDHVIWPDGKRVVLLAEGRLLNLSCSTVPTFVLSITATTQALALIELYNAPEGRYKQDVYLLPKKMDEYVASLHLPSFDAHLTELTDDQAKYLGLNKNGPFKPNYYRY
[1]
  binding to GST-IbIIa: to the same extent as GST-EL
[2]
  binding to R441Q: to the same extent
[3]
  binding to K508A: did not bind
[4]
  interaction with GST-Iab: did not interact
[5]
  interaction with GST-IIab: did not interact
GST-EL (IP3R)
  effect on IP3 binding of GST-EL after dephosphorylation: reduced effect
